In article PMC9670692:

Substrate: NC(=O)C[C@H](N)C(=O)O
Assay: purified protein
Settings: PBS pH 7.2, 37 °C, 1-200 mM asparagine

B1: PtAsp2like1 (Picrophilus oshimae DSM 9789) (protein)
chain: MNVIMLHGGAGSTGVEQKLMEYAVKSKSGSALDSVCNAVVLMENDPCFNAGTGSCMRLDGSIQMDAAVMTSKGFGSVMAIENVKNPVLVARAVMERSPHLIMAGDGAEKFAHLLGFEKYDPSTERAAKRRENDISMILSRKIDSYNKMMETVDISKFVDTVGAVARVNGEFAAAVSTGGAPPMLRGRVGDSPVPGAGIFCGENGAVVATGVGEEIIKNMLCISIYNEIGRESLSKIVMKNISRFRYHAGVIAVSNEEYFAYSNTDMSYAALEF
Protein B1 has a Km of 11.69 mM and a kcat of 0.056 s⁻¹.
